Assay results taken from patent US20090118184A1 (UNIVERSITY OF ROCHESTER, published 2009).

Tests used:
Test in all cases: cell-based or functional assay
[1] = molecular target: T1, factor VIIIa A1/A3C1C2 dimer, D1795A (human, UniProt P00451 20-391; P00451 1709-2351)
T1 sequence 1: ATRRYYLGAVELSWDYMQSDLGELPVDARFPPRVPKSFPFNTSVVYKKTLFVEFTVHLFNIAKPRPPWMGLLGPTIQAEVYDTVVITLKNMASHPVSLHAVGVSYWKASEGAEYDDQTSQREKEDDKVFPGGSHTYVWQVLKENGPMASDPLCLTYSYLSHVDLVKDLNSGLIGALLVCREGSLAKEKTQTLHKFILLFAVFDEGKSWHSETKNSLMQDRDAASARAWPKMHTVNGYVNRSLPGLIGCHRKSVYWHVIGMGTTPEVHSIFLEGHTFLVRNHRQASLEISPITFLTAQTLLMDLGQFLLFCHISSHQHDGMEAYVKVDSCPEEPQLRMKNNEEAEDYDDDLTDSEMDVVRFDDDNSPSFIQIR
T1 sequence 2: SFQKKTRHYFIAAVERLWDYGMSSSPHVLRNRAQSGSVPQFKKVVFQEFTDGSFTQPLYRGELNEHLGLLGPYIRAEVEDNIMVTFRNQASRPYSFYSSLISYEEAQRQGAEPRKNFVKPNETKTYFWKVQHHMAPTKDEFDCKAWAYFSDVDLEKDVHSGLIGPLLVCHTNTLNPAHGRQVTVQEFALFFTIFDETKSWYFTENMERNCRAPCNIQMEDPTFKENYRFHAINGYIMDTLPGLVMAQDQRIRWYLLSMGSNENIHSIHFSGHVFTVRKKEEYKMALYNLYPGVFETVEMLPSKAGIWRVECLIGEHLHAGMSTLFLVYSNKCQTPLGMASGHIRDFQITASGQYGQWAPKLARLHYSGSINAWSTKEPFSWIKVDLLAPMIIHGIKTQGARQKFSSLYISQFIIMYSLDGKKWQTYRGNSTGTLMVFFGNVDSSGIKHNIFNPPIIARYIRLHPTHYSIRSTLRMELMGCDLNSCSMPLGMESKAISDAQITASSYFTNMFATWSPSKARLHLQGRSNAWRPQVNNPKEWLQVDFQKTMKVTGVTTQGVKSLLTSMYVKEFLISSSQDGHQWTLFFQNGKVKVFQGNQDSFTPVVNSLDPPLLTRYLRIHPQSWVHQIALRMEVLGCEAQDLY

[2] = molecular target: T2, factor VIIIa A1/A3C1C2 dimer, S1791A (human, UniProt P00451 20-391; P00451 1709-2351)
T2 sequence 1: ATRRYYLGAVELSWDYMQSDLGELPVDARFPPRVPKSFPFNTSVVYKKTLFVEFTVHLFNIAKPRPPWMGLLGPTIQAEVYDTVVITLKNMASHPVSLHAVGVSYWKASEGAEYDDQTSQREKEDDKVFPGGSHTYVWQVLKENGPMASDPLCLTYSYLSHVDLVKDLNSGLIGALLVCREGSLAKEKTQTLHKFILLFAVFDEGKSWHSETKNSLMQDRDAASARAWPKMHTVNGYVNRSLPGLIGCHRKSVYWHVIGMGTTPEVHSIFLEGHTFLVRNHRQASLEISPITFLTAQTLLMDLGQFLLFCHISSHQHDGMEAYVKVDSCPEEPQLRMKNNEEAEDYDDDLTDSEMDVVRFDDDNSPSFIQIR
T2 sequence 2: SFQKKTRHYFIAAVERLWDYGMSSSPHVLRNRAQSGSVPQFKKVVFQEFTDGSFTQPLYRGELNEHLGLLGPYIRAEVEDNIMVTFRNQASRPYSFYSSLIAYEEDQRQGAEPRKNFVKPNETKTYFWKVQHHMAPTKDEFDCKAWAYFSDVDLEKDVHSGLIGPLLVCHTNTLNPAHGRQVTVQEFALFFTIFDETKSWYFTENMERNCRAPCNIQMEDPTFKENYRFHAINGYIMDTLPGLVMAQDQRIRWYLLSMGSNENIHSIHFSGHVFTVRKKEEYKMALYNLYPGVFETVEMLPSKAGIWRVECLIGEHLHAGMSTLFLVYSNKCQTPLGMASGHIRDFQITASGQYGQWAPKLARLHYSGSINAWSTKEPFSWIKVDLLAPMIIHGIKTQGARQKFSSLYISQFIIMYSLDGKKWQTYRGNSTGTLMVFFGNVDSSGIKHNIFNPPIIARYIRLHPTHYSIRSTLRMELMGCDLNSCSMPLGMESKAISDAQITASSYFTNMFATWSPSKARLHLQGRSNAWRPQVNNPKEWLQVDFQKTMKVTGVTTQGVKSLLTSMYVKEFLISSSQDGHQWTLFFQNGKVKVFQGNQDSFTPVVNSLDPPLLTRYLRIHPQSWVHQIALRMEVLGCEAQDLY

[3] = molecular target: T3, factor VIIIa A1/A3C1C2 dimer, Y1786F (human, UniProt P00451 20-391; P00451 1709-2351)
T3 sequence 1: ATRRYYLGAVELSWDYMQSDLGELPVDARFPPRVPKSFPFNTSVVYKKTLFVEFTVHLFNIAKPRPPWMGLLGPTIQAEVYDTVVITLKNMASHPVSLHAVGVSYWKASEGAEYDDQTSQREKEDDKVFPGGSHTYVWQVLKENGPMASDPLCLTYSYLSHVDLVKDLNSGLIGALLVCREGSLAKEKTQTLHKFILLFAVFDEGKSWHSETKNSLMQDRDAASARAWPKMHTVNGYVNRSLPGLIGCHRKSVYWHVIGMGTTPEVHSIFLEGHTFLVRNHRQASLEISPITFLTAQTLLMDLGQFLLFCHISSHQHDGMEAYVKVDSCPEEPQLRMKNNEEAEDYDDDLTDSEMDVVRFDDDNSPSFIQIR
T3 sequence 2: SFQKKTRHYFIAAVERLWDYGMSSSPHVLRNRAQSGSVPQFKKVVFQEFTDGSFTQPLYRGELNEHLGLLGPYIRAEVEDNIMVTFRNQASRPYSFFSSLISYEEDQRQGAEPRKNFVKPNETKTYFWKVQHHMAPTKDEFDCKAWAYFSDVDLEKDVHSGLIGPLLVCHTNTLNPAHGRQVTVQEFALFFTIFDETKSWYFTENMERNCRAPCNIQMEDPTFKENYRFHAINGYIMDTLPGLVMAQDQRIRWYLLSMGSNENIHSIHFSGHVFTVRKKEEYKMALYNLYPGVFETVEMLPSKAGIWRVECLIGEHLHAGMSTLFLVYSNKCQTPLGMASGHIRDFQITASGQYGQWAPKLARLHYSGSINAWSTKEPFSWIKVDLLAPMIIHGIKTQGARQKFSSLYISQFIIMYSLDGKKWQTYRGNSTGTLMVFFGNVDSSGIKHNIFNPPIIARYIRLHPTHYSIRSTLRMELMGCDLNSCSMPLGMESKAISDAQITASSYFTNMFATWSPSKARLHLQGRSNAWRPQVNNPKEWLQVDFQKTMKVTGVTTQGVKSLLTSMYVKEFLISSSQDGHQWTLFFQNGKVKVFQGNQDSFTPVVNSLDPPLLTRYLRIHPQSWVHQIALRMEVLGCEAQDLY

Factor VIIIa decay rate relative to wild type, FIXa (+) [1]: 2.11 relative to wild type | Factor VIIIa decay rate, FIXa (+) [1]: 0.0238 min⁻¹ | Factor VIIIa decay rate relative to wild type, FIXa (+) [2]: 1.85 relative to wild type | Factor VIIIa decay rate, FIXa (+) [2]: 0.0208 min⁻¹ | Factor VIIIa decay rate relative to wild type, FIXa (+) [3]: 20.9 relative to wild type | Factor VIIIa decay rate relative to wild type, FIXa (-) [3]: 17 relative to wild type | Factor VIIIa decay rate, FIXa (+) [3]: 0.236 min⁻¹ | Factor VIIIa decay rate, FIXa (-) [3]: 1.07 min⁻¹
B1: factor VIIIa A2 subunit, wild type (other)
chain: SVAKKHPKTWVHYIAAEEEDWDYAPLVLAPDDRSYKSQYLNNGPQRIGRKYKKVRFMAYTDETFKTREAIQHESGILGPLLYGEVGDTLLIIFKNQASRPYNIYPHGITDVRPLYSRRLPKGVKHLKDFPILPGEIFKYKWTVTVEDGPTKSDPRCLTRYYSSFVNMERDLASGLIGPLLICYKESVDQRGNQIMSDKRNVILFSVFDENRSWYLTENIQRFLPNPAGVQLEDPEFQASNIMHSINGYVFDSLQLSVCLHEVAYWYILSIGAQTDFLSVFFSGYTFKHKMVYEDTLTLFPFSGETVFMSMENPGLWILGCHNSDFRNRGMTALLKVSSCDKNTGDYYEDSYEDISAYLLSKNNAIEPR
